Experiment [1] concerns the target OD_(CN54)+-Fc (outer domain of HIV-1 CN54 gp120, residues 251-481, with V295N+A394T, fused at its C terminus to the Fc domain of human IgG1) (HIV-1 CN54 | human). The experiment is described as follows: SDS-PAGE under non-reducing conditions; purified Fc fusion proteins under non-reducing conditions; data not shown.
In experiment [2] the target is gp120_(CN54)+-Fc (HIV-1 CN54 gp120 with V295N+A394T, fused at its C terminus to the Fc domain of human IgG1) (HIV-1 CN54 | human). The experiment is described as above.

“OD_(CN54)+-Fc (outer domain of HIV-1 CN54 gp120, residues 251-481, with V295N+A394T, fused at its C terminus to the Fc domain of human IgG1) (Fc fusion)” registered a stoichiometry N in experiment [1] of 2.
Consider “gp120_(CN54)+-Fc (HIV-1 CN54 gp120 with V295N+A394T, fused at its C terminus to the Fc domain of human IgG1) (Fc fusion)”, for which the stoichiometry N in experiment [2] came out at 2.

For the origin of these results see paper PMC1891314.
